Data published in patent publication US20260028391A1 (HUMABS BIOMED, published 2026).
Positions count from the first letter of the chain named. Names and notes keep the numbering of the source.

B1: MPK65-v2-rIgG1-LS (antibody, V domains shown)
VH: QVPLVQSGAEVKKPGESLKISCKGSGYSFINYWIGWVRQMPGKGLEWMGVIYPFDSDTKYSPSFQGHVTISADKSSNTAYVQWSSLKASDTAMYYCARFTFGIAVVTDDVSGEGQAFEIWGQGTMVTVSS
VL: EIVMMQSPATLSVSPGERATLSCRASQSVAGNLAWYQQRPGQAPRLLIYGASTRATGVPARFSGSGSETEFTLTISSLQSEDFAVYYCHQYSNWPQAFGQGTRLDIK
notes: Recombinant human IgG1 with M428L/N434S (LS)
B2: MPK201-rIgG1-LS (antibody, V domains shown)
VH: EVQLVQSGAEVKKPGESLKISCQGSGYSFINYWIGWVRQKPGKGLEWMGIIYPFDSETKYSPSFQGHVTFSADKSINTAYVQWSSLRASDTAMYYCARFTFGLAVTTADVSGEGQAFEIWGQGTMVTVSS
VL: B1 VL with I48V, T56S, Q90H, N93D
notes: as for B1
B3: MPK104-v1.3-rIgG1m17,1-LS (antibody, V domains shown)
VH: QVQLVESGGGLVKPGGSLRLSCAASGFTIDGYGMNWVRQAPGKGLEWVSSISASSNYIYYADSMKGRFTISRDNGKNSLYLQMHSLRVEDTGVYYCARAPLEPPYFDLWGRGTLVTVSS
VL: QSVLTQPPSVSGAPGQRVTISCSGGSSNIGAGYDVHWYQQVPGKGPKVLIYGNTNRPSGVPDRFSGSNFGASASLAITGLQAEDEADYFCQSYDRRLGGPVFGGGTKLTVL
notes: also called MPK104-v1.3-rIgG1-LS
B4: MPK104-v1.1-rIgG1m17,1-LS (antibody, V domains shown)
VH: B3 VH
VL: B3 VL with T54N, E83D
notes: called the parental mAb (v1.1)
B5: MPH12 (antibody, V domains shown)
VH: QVQLVESGGGLVKPGGSLRLSCVASGFTFSGFYMKWIRQAPGKGLEWVSSISASGSYTNYADSVEGRFTVSRDNAKNSLFLLMSSLRAEDTAVYYCARGDSYCGASACHGEFFHKWGQGTLVTVSS
VL: QSVLTQPPSVSGAPGQRVTISCTGSDSNIGADFDVHWYQQLPGTAPKLLIYGNINRPSGVPDRFSGSRSGTSAFLAITRLQAEDEADYYCQSYDRSLHYVFGAGTKVTVL
notes: also called MPH12-rIgG1; MPH12-rIgG1-LS
B6: MPK176-rIgG1-LS (antibody, V domains shown)
VH: QVQLVQSGAEVKKPGASVRVSCKASGYTLTAYGISWVRQAPGQGLEWMGWISPKHGNTHYAQRFQGRVTMTTDTSTSTAYMELRSLRPDDTAVYFCAREGVDIMAVPWYFDYWGQGTLVAVSS
VL: SYELTQPPSVSVAPGQTARISCGGNNIGSKSVHWYQQKPGQAPVVVVYDDSDRPSGIPERFSGSNSGNTATLTISGVEAGDEADYFCQVWDSATDHWVFGGGTKLTVL
notes: as for B1
B7: MPK190-v1.3-rIgG1m17,1-LS (antibody, V domains shown)
VH: QVQLVESGGGLVKPGGSLTLSCAASGFSISGYGMNWVRQAPGRGLEWVASISASSTYIYYADSMKGRFTISRDNGKTSLYLQMKSLRAEDTAVYYCARAPIEPPYFDLWGRGTLVTVSS
VL: QSVLTQPPSVSGAPGQRVTISCTGSSSNIGAGYDVHWYQHLPGKAPKVLIYGNTNRPSVVPDRFSGSNSGASASLAISGLQAEDEADYFCQSYDRRLSGPIFGGGTKLTVLG
B8: MPK190-v1.3-rIgG1m17,1-LS (antibody, V domains shown)
VH: B7 VH
VL: B7 VL
notes: also called MPK190-v1.3-rIgG1-LS
B9: MPK190-v1.1-rIgG1m17,1-LS (antibody, V domains shown)
VH: B7 VH
VL: QSVLTQPPSVSGAPGQRVTISCTGSNSNIGAGYDVHWYQHLPGKAPKVLIYGNNNRPSVVPDRFSGSNSGASASLAISGLQAEDEADYFCQSYDRRLSGPIFGGGTKLTVL
notes: also called MPK190-v1.1-rIgG1-LS

Key:
[1] = molecular target: RSV B 9719/09 fusion glycoprotein (F) (RSV B, strain 9719/09); assay: cell-based or functional assay
[2] = molecular target: RSV B1 BPR-348-00 (BEI NR-4052) fusion glycoprotein (F) (RSV B, strain B1, UniProt O36634 26-574); assay: cell-based or functional assay
[3] = molecular target: RSV A Randall fusion glycoprotein (F) (RSV A, strain Randall); assay: cell-based or functional assay
[4] = molecular target: RSV A2 BPR-344-00 (BEI NR-12149) fusion glycoprotein (F) (RSV A, strain A2, UniProt P03420 26-574); assay: cell-based or functional assay
RSV-B F = molecular target: T1, RSV-B F (RSV B); assay: affinity; method not given
T1 construct: also called RSV F B

[5] = molecular target: RSV A1998/3-2 fusion glycoprotein (F) (RSV A, strain A1998/3-2); assay: cell-based or functional assay
[6] = molecular target: RSV A1997/12-35 fusion glycoprotein (F) (RSV A, strain A1997/12-35); assay: cell-based or functional assay
[7] = molecular target: RSV A2 VR 1540 fusion glycoprotein (F) (RSV A, strain A2 (VR 1540), UniProt P03420 26-574); assay: cell-based or functional assay
[8] = molecular target: RSV A 2000/3-4 fusion glycoprotein (F) (RSV A, strain A 2000/3-4); assay: cell-based or functional assay
[9] = molecular target: RSV A2 (screening GFP strain) fusion glycoprotein (F) (RSV A); assay: cell-based or functional assay
[10] = molecular target: RSV A 2001/3-12 fusion glycoprotein (F) (RSV A, strain A 2001/3-12); assay: cell-based or functional assay
[11] = molecular target: RSV Ds Red 5 fusion glycoprotein (F) (RSV, strain printed as Ds Red 5); assay: cell-based or functional assay
[12] = molecular target: RSV B (screening GFP strain) fusion glycoprotein (F) (RSV B); assay: cell-based or functional assay
RSV-A F = molecular target: T2, RSV-A F (RSV A); assay: affinity; method not given
T2 construct: also called RSV F A

[13] = molecular target: fusion glycoprotein (F) of MPV A GFP (Tables 41 and 43) (metapneumovirus A); assay: cell-based or functional assay
biot-RSV-F wt [14] = molecular target: T3, biot-RSV-F wt (respiratory syncytial virus (RSV)); assay: BLI, SA sensor loaded with biot-RSV-F wt, mAb 5 ug/ml, 4 min association, 6 min dissociation
biot-RSV-F wt [15] = molecular target: T3, biot-RSV-F wt; assay: BLI (Octet), biotinylated F on SA sensors, mAb 5 µg/ml
[16] = molecular target: T4, RSV F expressed on transfected Expi293F cells (respiratory syncytial virus (RSV)); assay: flow cytometry, transfected Expi293F cells, fixed and permeabilised
[17] = molecular target: fusion glycoprotein (F) of RSV A GFP (Tables 41 and 42) (respiratory syncytial virus A); assay: cell-based or functional assay
[18] = molecular target: fusion glycoprotein (F) of RSV B GFP (Tables 41 and 42) (respiratory syncytial virus B); assay: cell-based or functional assay
[19] = molecular target: T5, RSV fusion glycoprotein (RSV-F), pre-fusion conformation, recombinant protein loaded on sensors (respiratory syncytial virus (RSV), …); assay: ELISA-type titration, OD 405 nm, on Pre-F
T5 construct: also called RSV-F wt; RSV-F protein

[20] = molecular target: post-fusion RSV F protein (respiratory syncytial virus (RSV), …); assay: ELISA-type titration, OD 405 nm, on Post-F
DS-Cav1 RSV F = DS-Cav1 RSV F (respiratory syncytial virus (RSV); …, UniProt P13843 26-513); assay: ELISA on RSV-F Ds-Cav1, 1 ug/ml
RSV F B K68N-N208S = molecular target: T6, RSV F B K68N-N208S (RSV B); assay: FACS, % binding to RSV F B variants
T6 construct: whole, on cells

RSV F B K68N-N201S = molecular target: T7, RSV F B K68N-N201S (RSV B); assay: FACS, % binding to RSV F B variants
T7 construct: whole, on cells

RSV F B N201S = molecular target: T8, RSV F B N201S (RSV B); assay: FACS, % binding to RSV F B variants
T8 construct: whole, on cells

RSV F B S443P = molecular target: T9, RSV F B S443P (RSV B); assay: FACS, % binding to RSV F B variants
T9 construct: whole, on cells; also called mutant S443P

RSV F B N208S = molecular target: T10, RSV F B N208S (RSV B); assay: FACS, % binding to RSV F B variants
T10 construct: whole, on cells; also called mutant N208S

RSV F B N208D = molecular target: T11, RSV F B N208D (RSV B); assay: FACS, % binding to RSV F B variants
T11 construct: whole, on cells

RSV F B, B Ref = molecular target: T12, RSV F B, B Ref (RSV B); assay: FACS, % binding to RSV F B variants
T12 construct: whole, on cells

[21] = molecular target: RSV A fusion glycoprotein (F), virus of the neutralisation assays of Tables 54 and 57 (RSV A); assay: cell-based or functional assay
[22] = molecular target: RSV-B B18537/62 F protein (RSV B, strain B18537/62, UniProt P13843 26-574); assay: cell-based or functional assay
RSV-B B9320 F protein = RSV-B B9320 F protein (RSV B, strain B9320); assay: cell-based or functional assay
[23] = molecular target: RSV-long strain fusion glycoprotein (F) (RSV, long strain, UniProt P12568 26-574); assay: cell-based or functional assay
[24] = molecular target: T4, RSV F expressed on transfected Expi293F …; assay: flow cytometry, transfected Expi293F cells, fixed and permeabilised; remark: listed apart in the source
biot-RSV-F wt [25] = molecular target: T3, biot-RSV-F wt; assay: BLI, SA sensor loaded with biot-RSV-F wt, mAb 5 ug/ml, 4 min association, 6 min dissociation; remark: listed apart in the source

Binder	Kd (RSV-B F) [pM]	IC50, virus neutralization [5] [ng/mL]	IC50, virus neutralization [6] [ng/mL]	IC50, virus neutralization [7] [ng/mL]	IC50, virus neutralization [8] [ng/mL]	IC50, virus neutralization [9] [ng/mL]	IC50, virus neutralization [10] [ng/mL]	IC50, virus neutralization [11] [ng/mL]	IC50, virus neutralization [12] [ng/mL]	IC50 (ng/ml), MPV A GFP neutralization [13] [ng/mL]	Kd (biot-RSV-F wt [15]) [pM]	IC50 (ng/ml), RSV A GFP neutralization [17] [ng/mL]	IC50 (ng/ml), RSV B GFP neutralization [18] [ng/mL]	further results
B1	404	0.17	0.56	0.95	0.74	0.955	0.59	0.47	0.607					IC50, virus neutralization [1]: 0.741 ng/mL; IC50, virus neutralization [2]: 0.4 ng/mL; IC50, virus neutralization [3]: 1.7 ng/mL; IC50, virus neutralization [4]: 0.5 ng/mL
B2	1	3.01	2.33	1.53	1.26	2.83	1.77	1.23	1.49					Kd (RSV-A F): 1 pM
B3										5.57	209	2.71	6.49	Kd (biot-RSV-F wt [14]): 92.4 pM; Binding (FACS) relative to parental mAb MPK104-v1.1 [16]: 1.1
B4														Kd (biot-RSV-F wt [14]): 64.9 pM; Binding (FACS) relative to parental mAb MPK104-v1.1 [16]: 1
B5														EC50 (read off the curve) [19]: ~10 ng/mL; EC50 (read off the curve) [20]: ~30 ng/mL; EC50 (read off the curve) (DS-Cav1 RSV F): ~2 ng/mL
B6	1	2.45	2.08	2.87	2.3	4.15	2.12	1.06	2.19					Kd (RSV-A F): 59.1 pM
B7														% binding (RSV F B K68N-N208S): 61.5%; % binding (RSV F B K68N-N201S): 63.3%; % binding (RSV F B N201S): 63.1%; % binding (RSV F B S443P): 66.7%; % binding (RSV F B N208S): 63.4%; % binding (RSV F B N208D): 60.5%; % binding (RSV F B, B Ref): 72.1%; IC50, neutralization of RSVA [21]: 15.3 ng/mL; EC50, virus neutralization (Fab testing) [22]: 24.7 pM; EC50, virus neutralization (Fab testing) (RSV-B B9320 F protein): 17 pM; EC50, virus neutralization (Fab testing) [23]: 105 pM
B8										5.99	< 1	3.18	2.38	Binding (FACS) relative to parental mAb MPK190-v1.1 [24]: 0.9; Kd (biot-RSV-F wt [25]): < 1 pM
B9										4.03	< 1	3.54	3.39	Binding (FACS) relative to parental mAb MPK190-v1.1 [24]: 1; Kd (biot-RSV-F wt [25]): < 1 pM
